PMC5670239, “Structural basis for mutually exclusive co-transcriptional nuclear cap-binding complexes with either NELF-E or ARS2” (Nature Communications, 2017)
Each block holds one substance with its values, some of them ahead of it. Ends that are not written are not given here.

Legend:
m^7GTP-CBC [1] = target: T1, m^7GTP-CBC (Homo sapiens, UniProt P52298+Q09161); experiment: ITC, binding to CBC in the presence of the cap analogue m^7GTP; settings: for Kd: ITC, 25 °C, 20 mM HEPES, 120 mM NaCl, 2 mM TCEP, pH 7.8, CBC bound to m^7GTP, mean ± SD of at least two independent experiments, SD
T1 construct: 6-histidine tag (pETM30 vector) (N, cleaved yes); made in house; host or cells: CBP20 in E. coli Rosetta 2; CBP80ΔNLS in High Five insect cells; heterodimer reconstituted on Ni-sepharose
T1 sequence (Q09161 20-790): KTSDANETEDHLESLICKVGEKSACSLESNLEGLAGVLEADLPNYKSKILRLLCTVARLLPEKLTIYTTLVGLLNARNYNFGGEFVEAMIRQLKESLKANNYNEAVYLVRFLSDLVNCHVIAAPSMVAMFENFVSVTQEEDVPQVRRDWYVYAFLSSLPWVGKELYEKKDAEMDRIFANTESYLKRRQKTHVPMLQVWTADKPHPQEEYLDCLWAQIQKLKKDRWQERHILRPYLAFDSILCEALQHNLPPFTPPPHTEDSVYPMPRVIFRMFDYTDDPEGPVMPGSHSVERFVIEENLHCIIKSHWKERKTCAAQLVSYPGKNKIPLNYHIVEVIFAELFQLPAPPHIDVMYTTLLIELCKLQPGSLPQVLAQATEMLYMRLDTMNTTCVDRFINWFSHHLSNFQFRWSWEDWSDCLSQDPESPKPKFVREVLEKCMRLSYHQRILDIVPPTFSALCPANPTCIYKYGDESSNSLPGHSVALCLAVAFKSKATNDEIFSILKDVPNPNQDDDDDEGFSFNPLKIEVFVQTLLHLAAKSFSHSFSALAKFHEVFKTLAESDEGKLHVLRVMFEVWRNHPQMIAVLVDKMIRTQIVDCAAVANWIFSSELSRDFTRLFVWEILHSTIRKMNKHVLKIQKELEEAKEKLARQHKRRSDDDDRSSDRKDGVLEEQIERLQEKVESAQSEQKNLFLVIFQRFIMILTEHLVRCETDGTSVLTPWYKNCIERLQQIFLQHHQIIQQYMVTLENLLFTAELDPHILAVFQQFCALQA
T1 sequence (P52298 1-156): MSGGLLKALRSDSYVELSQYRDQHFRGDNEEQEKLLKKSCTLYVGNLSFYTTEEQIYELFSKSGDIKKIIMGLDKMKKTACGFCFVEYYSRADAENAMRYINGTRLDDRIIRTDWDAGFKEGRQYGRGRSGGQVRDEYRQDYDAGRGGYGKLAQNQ
Excerpt: (§1) hARS2 isoform-4 (871 residues, UniProt:Q9BXP5-4, also known as isoform-e, NP_001122326) constructs (residues 147–871, 147–845, 763–871, 763–845, 827–871) hNELF-E (NM_002904.5) (244–380, 244–360) and hPHAX (NM_032177.3) (1–394, 103–294, 103–308, 103–327) were cloned into pETM11 (EMBL). Full-length hNELF-E (1–380) was cloned into pFASTBac and CBP20 into pETM30. Primers used are given in Supplementary Table 2. All constructs were expressed in E. coli Rosetta 2 (Novagen), except full-length NELF-E and CBP80ΔNLS (CBP80 with residues 1–19 deleted[2]), which were expressed in High Five insect cells (Life Technology). Cells were harvested and lysed by sonication in lysis buffer containing 50 mM HEPES, pH 7.8, 300 mM NaCl, 10% (v/v) glycerol, 5 mM β-mercaptoethanol. Lysates were clarified by centrifugation and applied on an equilibrated Ni-sepharose column (GE Healthcare), washed with 20 mM imidazole in lysis buffer, and eluted with 300 mM imidazole in lysis buffer. While dialysing into 20 mM HEPES, pH 7.8, 120 mM NaCl, 10% (v/v) glycerol, 5 mM β-mercaptoethanol, the N-terminal 6-histidine-tag was cleaved with His-tagged Tobacco Etch Virus (TEV) protease overnight in a ratio 1:100 mg TEV per mg protein. The cleaved protein was further purified first on Ni-sepharose to remove TEV and then using an anion exchange column (HiTrap Q, GE Healthcare) followed if necessary by a Heparin column (GE Healthcare). In both cases a NaCl gradient from 50 to 800 mM in 20 mM HEPES 7.8, 0.5 mM tris(2-carboxyethyl)phosphine was used. To reconstitute the CBC heterodimer, cleared His-tagged CBP20 lysate was first immobilised on a Ni-sepharose column. After washing the column with lysis buffer, the cleared CBP80 lysate was applied to the column and further purification steps performed as described above. To remove the access of CBP20 the flow through of the Ni-column after TEV cleavage was loaded on an anion exchange column (HiTrap Q, GE Healthcare) and CBC eluted by a NaCl gradient as described above. In the text we refer to CBP80ΔNLS and CBP80ΔNLS-CBP20 as CBP80 and CBC, respectively. ARS2^845–871, NELF-E^354–380, and NELF-E^360–380 peptides, with or without FAM label at the N-terminus, were purchased from GenScript.

m^7GTP-CBC [2] = target: T1, m^7GTP-CBC; experiment: Fluorescence polarisation with FAM-labelled C-terminal peptides; type: binding; settings: 40 nM FAM peptide, 25 °C, n = 3; for Change of fluorescence polarisation on addition of labelled peptide to m^7GTP-CBC: 20 mM HEPES pH 7.8, 120 mM NaCl, 2 mM TCEP, ex 495 / em 515 nm
Method: (§2) Fig. 4 Incompatibility of ARS2-PHAX and NELF-E binding to CBC. a, b Competition on m^7GTP-sepharose. a In separate experiments, different amounts of ARS2^147–871 were added to preformed CBC–NELF–E complex immobilised on m^7GTP-sepharose. […] The fluorophore FAM is represented with a star. Note that different constructs of NELF-E and ARS2 were used in c, d, and e compared to f, g, and h and are therefore represented by slightly different shapes. Error bars show the SD of three experiments
Fluorescence anisotropy binding assays were performed with N-terminal FAM-labelled ARS2^845–871 and […] peptides. 40 nM peptides were titrated with increasing concentrations of proteins in 20 mM HEPES, pH 7.8, 120 mM NaCl, 2 mM tris(2-carboxyethyl)phosphine. For the competition assay CBC–ARS2 and CBC–NELF–E complexes were preformed in the presence of 25 µM m^7GTP using 40 nM ARS2^827–871(FAM) peptide together with 60 nM CBC and 40 nM NELF-E^354–380(FAM) peptide with 1 µM CBC. […] To observe a change in polarisation at reasonable protein concentrations, CBC and NELF-E^244–380 concentrations that saturate half of the FAM-labelled peptides were used to preform the individual complexes. Fluorescence polarisation was measured at 25 °C with a microplate reader (CLARIOstar BMG LABTECH) using an excitation wavelength of 495 nm and emission wavelength of 515 nm. For analysis the polarisation value for the peptide alone was subtracted from the measurements.

CBC [3] = target: T2, CBC (Homo sapiens, UniProt P52298); experiment: Size exclusion chromatography (gel filtration) co-elution with CBC, without m^7GTP; type: binding; settings: fractions analysed by SDS-PAGE, absence of m^7GTP
T2 sequence (P52298 1-156): T1 sequence (P52298 1-156)
T2 sequence (Q09161 20-790 partner): T1 sequence (Q09161 20-790)
Method: (§3) Fig. 1 The interaction of CBC with ARS2 is enhanced in the presence of m^7GTP. a Schematic diagram of the domain structure of ARS2 based on ref. [26]. b Gel filtration chromatogram and Coomassie-stained SDS-PAGE of CBC-ARS2 in the presence and absence of m^7GTP. Purified recombinant CBC and ARS2^147–871 were mixed with (orange) or without (blue) 500 µM m^7GTP and subjected to gel filtration. Their elution profiles were overlaid (left) and single fractions analysed by SDS-PAGE (middle and right). Purified recombinant CBC and C-terminally truncated ARS2^147–845 were mixed with 500 µM m^7GTP and analysed in a similar way (bottom left). c ITC data and curve fit to derive the affinity of different ARS2 constructs for CBC. CBC or m^7GTP-CBC in the sample cell was titrated by ARS2. […] K D values and standard deviation represent the average from at least two independent experiments. d Sequence alignment of the C-terminus of ARS2. Conserved residues are highlighted in red. Figure made with ESPript[54]
(§4) Fig. 2 The interaction of CBC with NELF-E is enhanced in the presence of m^7GTP. a Schematic diagram of the domain structure of NELF-E. b Gel filtration chromatogram and Coomassie-stained SDS-PAGE of CBC-NELF-E in the presence and absence of m^7GTP. […] Their elution profiles were overlaid (left) and single fractions analysed by SDS-PAGE (middle and right). […]

CBC [4] = target: T2, CBC; experiment: Size exclusion chromatography (gel filtration) co-elution with CBC, with m^7GTP; type: binding; settings: gel filtration with 500 µM m^7GTP, fractions analysed by SDS-PAGE
Method: as §3, §4

[5] = test system: CBC–PHAX complex immobilised on m^7GTP-sepharose; experiment: Displacement pull down on m^7GTP-sepharose, CBC–PHAX; type: binding, human; settings: different amounts added, 1 h at 4 °C, flow through and elution by SDS-PAGE
Method: as §2
CBC-NELF-E^1–380 or CBC-PHAX^1–394 were immobilised on m^7GTP-sepharose and incubated for 1 h at 4 °C with different amounts of ARS2^147–871 or NELF-E^1–380 in 20 mM HEPES, pH 7.8, 120 mM NaCl, 2 mM tris(2-carboxyethyl)phosphine, respectively. The flow through, as well as the elution from the beads after extensive washing, was analysed by SDS-PAGE followed by Coomassie staining.

CBC [6] = target: T2, CBC; experiment: ITC, binding to CBC without cap analogue; settings: ITC (MicroCal ITC200), 25 °C, 20 mM HEPES, 120 mM NaCl, 2 mM TCEP, pH 7.8, single-site fit; no cap analogue pre-bound; mean ± SD of at least two independent experiments; SD
Excerpt: as §1, with “ARS2^845–871, NELF-E^354–380, and NELF-E^360–380 peptides, with or without FAM label at the N-terminus, were purchased from GenScript.” left out

m^7GTP-CBCmut = experiment: ITC, binding to mutated CBC in the presence of m^7GTP; design: species or system human; settings: with m^7GTP; for Kd: 25 °C, pH 7.8, CBCmut = CBP20 Y50A + CBP80 Y461A/R610E/H651A, mean ± SD of 2 experiments
Method: For CBC, a triple mutant in CBP80 (Y461A/R610E/H651A) was combined with various mutations in CBP20 (Y50A, Y50A/Y89A, or Y50A/Y89A/D107R).
ITC experiments were performed on a MicroCal ITC200 system (Malvern). Proteins were dialyzed overnight in buffer 20 mM HEPES, 120 mM NaCl, 2 mM tris(2-carboxyethyl)phosphine, pH 7.8. Injections of 1.5 µl protein A were added at an interval of 120–180 s into 205 µl of protein B in the cell, with a stirring speed of 800 rpm at 25 °C. The experimental data were analysed with MicroCal ITC Origin and were fitted to a single-site binding equation.

[7] = test system: CBC with triple mutants of both CBP20 and CBP80; experiment: m^7GTP-sepharose pull down with mutated CBC; type: binding, human; settings: CBP80 Y461A/R610E/H651A combined with CBP20 Y50A/Y89A/D107R
Excerpt: For CBC, a triple mutant in CBP80 (Y461A/R610E/H651A) was combined with various mutations in CBP20 (Y50A, Y50A/Y89A, or Y50A/Y89A/D107R). Binding of ARS2^827–871 to mutated CBC was first tested by m^7GTP-sepharose pull down (Supplementary Fig. 6).

Kd (m^7GTP-CBC [1]): 1.1 ± 0.16 µM
Substance: RNRMVRGDPRAIVEYRDLDAPDDVDFF [ARS2 845–871]

Kd (m^7GTP-CBC [1]): 1.8 ± 0.26 µM
Substance: ARS2 827–871 F871D: ARS2 827–871 construct with F871D mutation (GRGNYDAFRGQGGYPGKPRNRMVRGDPRAIVEYRDLDAPDDVDFD)

Substance: ARS2^845–871(FAM): N-terminal FAM-labelled ARS2 845–871 peptide ({FAM}-YPGKPRNRMVRGDPRAIVEYRDLDAPD; UniProt Q9BXP5 845-871, looked up, fragment) [reference compound]
Change of fluorescence polarisation on addition of labelled peptide to m^7GTP-CBC (m^7GTP-CBC [2]): increase in fluorescence polarisation, indicating binding

Substance: NELF-E^1–380: full-length human NELF-E, expressed in High Five insect cells
Interaction with CBC by SEC (CBC [3]): partially co-eluted
Interaction with CBC by SEC in the presence of m^7GTP (CBC [4]): stabilised the complex
Displacement of PHAX from preformed CBC-PHAX^1–394 bound to m^7GTP-sepharose [5]: resulted in the displacement of PHAX^1–394

Kd (CBC [6]): 12.2 ± 3.5 µM
Kd (m^7GTP-CBC [1]): 1 ± 0.2 µM
Enhancement of the interaction with CBC when m^7GTP is bound (m^7GTP-CBC [1]; ratio of ITC K D without / with m^7GTP): twelve-fold
Kd (m^7GTP-CBCmut): ~12 µM
Kd (m^7GTP-CBCmut; SD): 11.6 ± 1.1 µM
Reduction in affinity of CBCmut compared to wild-type CBC (m^7GTP-CBCmut): twelvefold
Change of polarisation on titration to m^7GTP-CBC-NELF-E^354–380(FAM) (m^7GTP-CBC [2]; competition, 1 µM CBC, 25 µM m^7GTP): decrease in polarisation
Substance: ARS2 827–871: human ARS2 isoform 4 residues 827–871, E. coli expressed construct (APYGAGRGNYDAFRGQGGYPGKPRNRMVRGDPRAIVEYRDLDAPD; isoform 4; UniProt Q9BXP5 827-871, looked up, fragment)
Co-elution with mutated CBC in m^7GTP-sepharose pull down [7]: abolished co-elution

Kd (m^7GTP-CBC [1]): 3.3 ± 1.1 µM
Substance: DKRTQIVYSDDVYKENLVDGF [NELF-E 360–380]

Substance: PHAX: full-length human PHAX (phosphorylated adaptor for RNA export), residues 1–394
Kd (m^7GTP-CBC [1]): 0.13 ± 0.05 µM

Substance: NELF-E^354–380(FAM): N-terminal FAM-labelled NELF-E 354–380 peptide ({FAM}-PKGCHRDKRTQIVYSDDVYKENLVDGF; UniProt P18615 354-380, looked up, fragment) [reference compound]
Change of fluorescence polarisation on addition of labelled peptide to m^7GTP-CBC (m^7GTP-CBC [2]): increase in fluorescence polarisation, indicating binding
